Data as given in article doi:10.1101/2023.06.21.545551.
pKd: −log10 of the molar value.

Target: MYC(352–437):MAX(22–102) heterodimer (human) (UniProt P61244)
Assay: NMR titration

MYC(352–437):MAX(22–102) heterodimer (human), sequence (P61244 whole entry, looked up, tested part not stated, one chain of several): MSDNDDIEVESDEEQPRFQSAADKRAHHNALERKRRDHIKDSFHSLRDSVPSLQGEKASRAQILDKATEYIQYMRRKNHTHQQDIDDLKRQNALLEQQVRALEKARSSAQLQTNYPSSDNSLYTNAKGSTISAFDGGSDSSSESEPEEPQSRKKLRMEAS

pKd: 5.15
Substance: MYC(11–34), Mb0 peptide
